The text below walks through data of US20240279357A1 (THERINI BIO, published 2024).

First the molecules themselves.
T1: P2 peptide comprising SEQ ID NO: 31 (human fibrin γ377-395) (human)
T1 construct: Bought (CPC Scientific 920712); also called human P2 peptide
T1 peptide: YSMKKTTMKIIPFNRLTIG

B1: VH4 C102A/VK2 (antibody, IgG1, V domains shown)
VH: QVQLVQSGAEVKKPGSSVKVSCKASGYTFTSYWIHWVRQAPGQGLEWIGLIDPSDSYTNYNQKFRGRVTITVDTSTSTAYMELSSLRSEDTAVYYCASSDPTGAWGQGTTVTVSS
VL: DIVMTQAAFSNPVTPGTPASISCRSSKSLLHSSGITYLSWYLQKPGQSPQLLIYQMSNLASGVPDRFSSSGSGTDFTLKISRVEAEDVGVYYCAQNLELPLTFGQGTKLEIK
notes: IgG1, tested from HEK supernatant
B2: VH4 C102G/VK2 (antibody, IgG1, V domains shown)
VH: B1 VH with A104G
VL: B1 VL
notes: IgG1, tested from HEK supernatant; also called VH4-102G
B3: VH5 C102V/VK2 (antibody, IgG1, V domains shown)
VH: B1 VH with V72R, A104V
VL: B1 VL
notes: IgG1, tested from HEK supernatant; also called VH5-102V
B4: VH5 C102A/VK2 (antibody, IgG1, V domains shown)
VH: B1 VH with V72R
VL: B1 VL
notes: as for B1
B5: VH4 C102S/VK2 (antibody, IgG1, V domains shown)
VH: B1 VH with A104S
VL: B1 VL
notes: as for B1
B6: VH4 C102V/VK2 (antibody, IgG1, V domains shown)
VH: B1 VH with A104V
VL: B1 VL
notes: IgG1, tested from HEK supernatant; also called VH4-102V
B7: VH4 C102T/VK2 (antibody, IgG1, V domains shown)
VH: B1 VH with A104T
VL: B1 VL
notes: as for B1
B8: humanized anti-fibrin antibody variant VH5 C102G/VK2 (antibody, IgG1, V domains shown)
VH: B1 VH with V72R, A104G
VL: B1 VL
notes: IgG1, tested from HEK supernatant in the SPR assay; also called VH5 C102G/Vκ2; VH5-102G
B9: VH5 C102S/VK2 (antibody, IgG1, V domains shown)
VH: B1 VH with V72R, A104S
VL: B1 VL
notes: as for B1
B10: VH4 C102L/VK2 (antibody, IgG1, V domains shown)
VH: B1 VH with A104L
VL: B1 VL
notes: IgG1, tested from HEK supernatant; also called VH4-102L
B11: VH5 C102L/VK2 (antibody, IgG1, V domains shown)
VH: B1 VH with V72R, A104L
VL: B1 VL
notes: IgG1, tested from HEK supernatant; also called VH5-102L
B12: VH1/VK1 (antibody, V domains shown)
VH: B1 VH with V11L, S16T, V20L, R38K, V68A, I70L, E82Q, R87T, T91S, A104C
VL: B1 VL with V13I, K79R
B13: VH1/VK2 (antibody, V domains shown)
VH: B1 VH with V11L, S16T, V20L, R38K, V68A, I70L, E82Q, R87T, T91S, A104C
VL: B1 VL
B14: VH4/VK3 (antibody, V domains shown)
VH: B1 VH with A104C
VL: B1 VL with A7S, A8P, F9L, N11L, T17E
B15: VH1/VK3 (antibody, V domains shown)
VH: B1 VH with V11L, S16T, V20L, R38K, V68A, I70L, E82Q, R87T, T91S, A104C
VL: B1 VL with A7S, A8P, F9L, N11L, T17E
B16: VH1/VK4 (antibody, V domains shown)
VH: B1 VH with V11L, S16T, V20L, R38K, V68A, I70L, E82Q, R87T, T91S, A104C
VL: B1 VL with A7S, A8P, F9L, N11L, T17E, S69G
B17: VH4/VK4 (antibody, IgG1, V domains shown)
VH: B1 VH with A104C
VL: B1 VL with A7S, A8P, F9L, N11L, T17E, S69G
notes: Expressed as IgG1
B18: VH5/VK1 (antibody, IgG1, V domains shown)
VH: B1 VH with V72R, A104C
VL: B1 VL with V13I, K79R
notes: Expressed as IgG1
B19: VH5/VK3 (antibody, IgG1, V domains shown)
VH: B1 VH with V72R, A104C
VL: B1 VL with A7S, A8P, F9L, N11L, T17E
notes: Expressed as IgG1
B20: VH6/VK1 (antibody, IgG1, V domains shown)
VH: B1 VH with R65Q, V72R, A104C
VL: B1 VL with V13I, K79R
notes: Expressed as IgG1
B21: VH6/VK3 (antibody, IgG1, V domains shown)
VH: B1 VH with R65Q, V72R, A104C
VL: B1 VL with A7S, A8P, F9L, N11L, T17E
notes: Expressed as IgG1
B22: VH5/VK4 (antibody, IgG1, V domains shown)
VH: B1 VH with V72R, A104C
VL: B1 VL with A7S, A8P, F9L, N11L, T17E, S69G
notes: Expressed as IgG1

Positions count from the first letter of the chain named. Numbers in names are those of the source.

The first assay deals with T1, P2 peptide comprising SEQ ID NO: 31 …. Nature of the assay: SPR (Biacore) single cycle, steady state affinity; IgG from HEK supernatant captured, γ377-395 peptide analyte. In general terms: Surface plasmon resonance follows binding to a sensor surface in real time, without labels.
For orientation: Kd means the concentration at which binding is half-saturated. Take B1: binding was characterised by a dissociation constant (Kd) of 72 µM and the “Relative KD” value turned out to be 1.53 fold against VH4/VK2.

For the molecule B2, the Kd was determined as 22 µM and the “Relative KD” value stood at 0.59 fold against VH4/VK2.

Turning to B3, the affinity, expressed as Kd, was 44 µM and the “Relative KD” value amounted to 0.56 fold against VH5/VK2.

As to B4, the Kd stood at 110 µM and the “Relative KD” value came to 1.44 fold against VH5/VK2.

Consider B5, for which the Kd stood at 66 µM and the “Relative KD” value worked out at 1.41 fold against VH4/VK2.

For the molecule B6, the Kd came out at 33 µM and the “Relative KD” value is 0.7 fold against VH4/VK2.

Consider B7, for which the affinity, expressed as Kd, was 49 µM and the “Relative KD” value stood at 1.05 fold against VH4/VK2.

In the case of B8, the Kd was 39 µM and the “Relative KD” value turned out to be 0.5 fold against VH5/VK2.

As to B9, the dissociation constant Kd stood at 110 µM and the “Relative KD” value was found to be 1.33 fold against VH5/VK2.

Turning to B10, the Kd was 93 µM and the “Relative KD” value is 1.98 fold against VH4/VK2.

Turning to B11, binding was characterised by a dissociation constant (Kd) of 140 µM and the “Relative KD” value was determined as 1.77 fold against VH5/VK2.

The next assay has the same target. Nature of the assay: SPR (Biacore) single cycle, steady state fit; IgG from HEK supernatant captured, P2 peptide analyte. How it is done: FIG. 18 illustrates the procedure used for the single cycle kinetics analysis. The Biacore T200 […] instrument was used for single cycle kinetics analysis with the control software v2.0.1, and evaluation software V3.0. The anti-human capture chip was used with a running buffer consisting of HBS-P+ buffer (pH 7.4) containing 0.1% BSA at 25° C. a flow rate of 30 μl/min. Neat HEK supernatants were used as ligand and loaded to ˜1674 RU at 10 μl/min. P2 peptide comprising SEQ ID NO: 31 (CPC Scientific 920712, Lot #CS-02-00350) was the analyte for the analysis. […] Regeneration was performed with MgCl₂. Antibodies were diluted in running buffer to a final concentration of 20 μg/ml, based on concentrations assessed by Octet titre. At the start of each cycle, antibodies were loaded onto Fc2, Fc3 and Fc4 of the anti-human capture chip (GE Healthcare, Little Chalfont, UK). IgGs were captured at a flow rate of 10 μl/min to give an immobilization level (RL) of ˜ 1674 RU, the theoretical value to obtain an RMax of ˜50 RU. The surface was then allowed to stabilize. Single cycle kinetic data was obtained with P2 peptide as the analyte at a flow rate of 30 μl/min to minimize any potential mass transport limitations. […] The signal from the reference channel Fc1 (no antibody) was subtracted from that of Fc2, Fc3 and Fc4 to correct for differences in non-specific binding to a reference surface. […] The association phase for the five injections of increasing concentrations of P2 peptide was monitored for 20 seconds each time and a single dissociation phase was measured for 25 seconds following the last injection analyte. Regeneration of the anti-human capture surface was conducted using one injection of 3.8 M magnesium chloride.
In turn, B12 yielded a Kd of 104 µM.

Consider B13, for which the Kd is 96.4 µM and the “Relative KD” value turned out to be 1.09 fold against VH0/VK0.

For the molecule B14, the Kd amounted to 148 µM and the “Relative KD” value amounted to 1.67 fold against VH0/VK0.

For B15, the Kd stood at 200 µM and the “Relative KD” value amounted to 2.25 fold against VH0/VK0.

Regarding B16, the Kd stood at 176 µM and the “Relative KD” value was found to be 1.98 fold against VH0/VK0.

In the case of B17, the Kd amounted to 157 µM and the “Relative KD” value is 1.77 fold against VH0/VK0.

For the molecule B18, the Kd is 173 µM and the “Relative KD” value was 1.95 fold against VH0/VK0.

As for B19, the equilibrium dissociation constant (Kd) was 279 µM and the “Relative KD” value worked out at 3.15 fold against VH0/VK0.

On to B20, for which the affinity, expressed as Kd, was 174 µM and the “Relative KD” value was found to be 1.96 fold against VH0/VK0.

B21: binding was characterised by a dissociation constant (Kd) of 192 µM and the “Relative KD” value stood at 2.16 fold against VH0/VK0.

Consider B22, for which the Kd came out at 277 µM and the “Relative KD” value came out at 3.12 fold against VH0/VK0.

The target of another assay is plasminogen-depleted human Fibrinogen (EMD/Calbiochem) (human) (UniProt P02671). The experiment in a line: ELISA on plate-coated human fibrinogen, antibody titrated, A450. In general terms: An ELISA detects its analyte on a solid surface through an enzyme-linked reagent.
plasminogen-depleted human Fibrinogen (EMD/Calbiochem) (human), sequence (P02671 20-629 limits assumed, chain 1 of 3): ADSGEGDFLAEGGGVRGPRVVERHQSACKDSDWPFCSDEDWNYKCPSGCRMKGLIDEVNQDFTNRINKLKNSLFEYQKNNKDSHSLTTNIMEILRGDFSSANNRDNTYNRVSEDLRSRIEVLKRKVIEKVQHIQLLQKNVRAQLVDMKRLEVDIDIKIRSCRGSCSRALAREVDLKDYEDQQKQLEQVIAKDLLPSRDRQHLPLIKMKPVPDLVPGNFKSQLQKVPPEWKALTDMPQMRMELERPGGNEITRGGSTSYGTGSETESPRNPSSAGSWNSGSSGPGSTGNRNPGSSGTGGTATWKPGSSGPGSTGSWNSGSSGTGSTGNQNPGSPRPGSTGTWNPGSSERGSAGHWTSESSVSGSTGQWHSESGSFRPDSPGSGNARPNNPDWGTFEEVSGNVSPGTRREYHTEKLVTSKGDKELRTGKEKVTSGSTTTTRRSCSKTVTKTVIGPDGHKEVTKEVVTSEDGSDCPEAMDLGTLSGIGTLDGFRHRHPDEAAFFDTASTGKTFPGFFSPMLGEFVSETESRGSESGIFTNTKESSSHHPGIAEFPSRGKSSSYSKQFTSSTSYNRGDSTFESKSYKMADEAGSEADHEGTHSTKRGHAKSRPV
plasminogen-depleted human Fibrinogen (EMD/Calbiochem) (human), sequence (P02675 31-491 limits assumed, chain 2 of 3, further chain): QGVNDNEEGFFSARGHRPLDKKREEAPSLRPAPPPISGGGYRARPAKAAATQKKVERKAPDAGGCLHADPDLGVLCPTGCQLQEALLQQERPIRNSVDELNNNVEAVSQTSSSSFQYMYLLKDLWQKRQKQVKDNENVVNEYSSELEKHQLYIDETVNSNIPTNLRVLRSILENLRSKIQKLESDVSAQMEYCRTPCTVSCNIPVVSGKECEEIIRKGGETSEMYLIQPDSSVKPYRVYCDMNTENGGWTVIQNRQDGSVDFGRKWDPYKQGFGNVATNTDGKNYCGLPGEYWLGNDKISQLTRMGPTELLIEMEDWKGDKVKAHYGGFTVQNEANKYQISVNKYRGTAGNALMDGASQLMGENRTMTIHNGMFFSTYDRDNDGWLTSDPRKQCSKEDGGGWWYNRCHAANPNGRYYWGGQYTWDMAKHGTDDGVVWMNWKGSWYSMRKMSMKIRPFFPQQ
plasminogen-depleted human Fibrinogen (EMD/Calbiochem) (human), sequence (P02679 other isoform, or with tags, fused parts or gaps limits assumed, chain 3 of 3, further chain): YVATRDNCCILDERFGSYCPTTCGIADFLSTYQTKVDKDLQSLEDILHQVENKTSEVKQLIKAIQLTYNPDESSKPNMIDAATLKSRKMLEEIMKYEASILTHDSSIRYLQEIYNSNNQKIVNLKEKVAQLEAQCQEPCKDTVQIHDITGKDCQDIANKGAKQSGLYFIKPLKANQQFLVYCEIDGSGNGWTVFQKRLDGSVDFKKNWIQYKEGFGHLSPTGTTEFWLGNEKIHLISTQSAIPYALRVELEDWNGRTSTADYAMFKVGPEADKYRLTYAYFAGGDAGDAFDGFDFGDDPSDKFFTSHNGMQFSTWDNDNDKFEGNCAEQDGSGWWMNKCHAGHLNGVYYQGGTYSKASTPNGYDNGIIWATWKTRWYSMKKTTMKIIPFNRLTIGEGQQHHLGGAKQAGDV
As usually defined, the EC50 is the concentration that produces a half-maximal response. A high value points to a need for much substance. In turn, mouse IgG2b isotype control (antibody) gave an EC50 of 1.84 µM.
